B1: GT Shaker Kv channel (N-terminally mVenus tagged Shaker after TEV cleavage, with additional Gly and Thr on the N terminus) (natural protein, Drosophila melanogaster)
chain: GTMAAVAGLYGLGEDRQHRKKQQQQQQHQKEQLEQKEEQKKIAERKLQLREQQLQRNSLDGYGSLPKLSSQDEEGGAGHGFGGGPQHFEPIPHDHDFCERVVINVSGLRFETQLRTLNQFPDTLLGDPARRLRYFDPLRNEYFFDRSRPSFDAILYYYQSGGRLRRPVNVPLDVFSEEIKFYELGDQAINKFREDEGFIKEEERPLPDNEKQRKVWLLFEYPESSQAARVVAIISVFVILLSIVIFCLETLPEFKHYKVFNTTTNGTKIEEDEVPDITDPFFLIETLCIIWFTFELTVRFLACPNKLNFCRDVMNVIDIIAIIPYFITLATVVAEEEDTLNLPKAPVSPQDKSSNQAMSLAILRVIRLVRVFRIFKLSRHSKGLQILGRTLKASMRELGLLIFFLFIGVVLFSSAVYFAEAGSENSFFKSIPDAFWWAVVTMTTVGYGDMTPVGVWGKIVGSLCAIAGVLTIALPVPVIVSNFNYFYHRETDQEEMQSQNFNHVTSCPYLPGTLGQHMKKSSLSESSSDMMDLDDGVESTPGLTETHPGRSAVAPFLGAQQQQQQPVASSLSMSIDKQLQHPLQQLTQTQLYQQQQQQQQQQQNGFKQQQQQTQQQLQQQQSHTINASAAAATSGSGSSGLTMRHNNALAVSIETDV
notes: two additional residues (Gly and Thr) left on the N terminus after removal of the mVenus tag with TEV protease, confirmed by mass spectrometry; Shaker Kv channel, Drosophila melanogaster, full-length gene; the N-terminal Met stands at position 3 of this construct; Purified by the N-terminal tag, so at least one N terminus is intact in each tetramer; other N termini may be truncated by …
B2: acetylated free N-terminal peptide of EI Shaker (Ac-AAVAGLYGLGKKRQHRKKQ) (peptide)
peptide: Ac-AAVAGLYGLGKKRQHRKKQ
notes: N terminus of the Shaker Kv channel without the initiator Met, with the E12K and D13K changes of EI Shaker; molecular weight 2,151 Da; also called additional N-terminal peptide; source: synthetic peptide (GenScript)
B3: full-length wild-type (WT) Shaker Kv channel, C-terminally mVenus tagged, tag removed (natural protein, Drosophila melanogaster, UniProt P08510 1-655, looked up)
chain: MAAVAGLYGLGEDRQHRKKQQQQQQHQKEQLEQKEEQKKIAERKLQLREQQLQRNSLDGYGSLPKLSSQDEEGGAGHGFGGGPQHFEPIPHDHDFCERVVINVSGLRFETQLRTLNQFPDTLLGDPARRLRYFDPLRNEYFFDRSRPSFDAILYYYQSGGRLRRPVNVPLDVFSEEIKFYELGDQAINKFREDEGFIKEEERPLPDNEKQRKVWLLFEYPESSQAARVVAIISVFVILLSIVIFCLETLPEFKHYKVFNTTTNGTKIEEDEVPDITDPFFLIETLCIIWFTFELTVRFLACPNKLNFCRDVMNVIDIIAIIPYFITLATVVAEEEDTLNLPKAPVSPQDKSSNQAMSLAILRVIRLVRVFRIFKLSRHSKGLQILGRTLKASMRELGLLIFFLFIGVVLFSSAVYFAEAGSENSFFKSIPDAFWWAVVTMTTVGYGDMTPVGVWGKIVGSLCAIAGVLTIALPVPVIVSNFNYFYHRETDQEEMQSQNFNHVTSCPYLPGTLGQHMKKSSLSESSSDMMDLDDGVESTPGLTETHPGRSAVAPFLGAQQQQQQPVASSLSMSIDKQLQHPLQQLTQTQLYQQQQQQQQQQQNGFKQQQQQTQQQLQQQQSHTINASAAAATSGSGSSGLTMRHNNALAVSIETDV
notes: Shaker Kv channel, Drosophila melanogaster, full-length gene; Residues of the TEV site may remain at the C terminus (surmise); also called C-terminally tagged WT Shaker; C-terminal mVenus-tagged Shaker; not shown: mVenus, C-terminal, cleaved; polyhistidine, C-terminal, cleaved
B4: full-length E12K/D13K AcA-EI Shaker Kv channel (enhanced inactivation mutant, initiator Met removed, Ala2 acetylated) (natural protein, Drosophila melanogaster, UniProt P08510 2-655, looked up)
chain: AAVAGLYGLGKKRQHRKKQQQQQQHQKEQLEQKEEQKKIAERKLQLREQQLQRNSLDGYGSLPKLSSQDEEGGAGHGFGGGPQHFEPIPHDHDFCERVVINVSGLRFETQLRTLNQFPDTLLGDPARRLRYFDPLRNEYFFDRSRPSFDAILYYYQSGGRLRRPVNVPLDVFSEEIKFYELGDQAINKFREDEGFIKEEERPLPDNEKQRKVWLLFEYPESSQAARVVAIISVFVILLSIVIFCLETLPEFKHYKVFNTTTNGTKIEEDEVPDITDPFFLIETLCIIWFTFELTVRFLACPNKLNFCRDVMNVIDIIAIIPYFITLATVVAEEEDTLNLPKAPVSPQDKSSNQAMSLAILRVIRLVRVFRIFKLSRHSKGLQILGRTLKASMRELGLLIFFLFIGVVLFSSAVYFAEAGSENSFFKSIPDAFWWAVVTMTTVGYGDMTPVGVWGKIVGSLCAIAGVLTIALPVPVIVSNFNYFYHRETDQEEMQSQNFNHVTSCPYLPGTLGQHMKKSSLSESSSDMMDLDDGVESTPGLTETHPGRSAVAPFLGAQQQQQQPVASSLSMSIDKQLQHPLQQLTQTQLYQQQQQQQQQQQNGFKQQQQQTQQQLQQQQSHTINASAAAATSGSGSSGLTMRHNNALAVSIETDV
modifications: acetyl on the N-terminal Ala2 (initiator Met removed), by mass spectrometry
notes: Shaker Kv channel, Drosophila melanogaster; Residues of the TEV site may remain at the C terminus (surmise); not shown: mVenus, C-terminal, cleaved; polyhistidine, C-terminal, cleaved

Data set [1] concerns the molecule itself. Kind of data set: cryo-EM structure; channel in MSP1E3D1 lipid nanodiscs (POPC:POPG:POPE 3:1:1), 20 mM Tris pH 7.5, 4 mM KCl, 46 mM NaCl; C4 refinement and focused classification in C1.
Data set [2] has as its target B4. Kind of data set: cryo-EM structure; AcA-EI Shaker in MSP1E3D1 lipid nanodiscs, 4 mM KCl, 46 mM NaCl, incubated with 1 mM free acetylated N-terminal peptide for 30 min before grid preparation; C1. The settings on record: both partners purified.

This note sets out measurements from PMC12460158, “Structural basis of fast N-type inactivation in Kv channels” (Nature, 2025).

Ends that are not written are not given here.

On to B1, for which the binding result in data set [1] is on record as “binds”.

Regarding B2, the binding result in data set [2] is listed as “binds”.

In the case of B3, the binding result in data set [1] is “binds”.

Turning to B4, the binding result in data set [1] is “binds”.
